Data reported in patent publication US20230390371A1, “ANTI-TUMOR IMMUNITY INDUCES THE PRESENTATION OF ABERRANT PEPTIDES” (STICHTING HET NEDERLANDS KANKER INSTITUUT-ANTONI VAN …, priority 2020, published 2023).

Test system: A375 cells expressing H2-Kb
Assay: H2-Kb-bound SIINFEKL presentation from V5-ATF4(1-63)-tGFP-SIINFEKL reporters
Assay type: cell-based, human
Details: IFNγ treatment
Text: FIG. 4: Aberrant frameshifted peptides are detected in full proteomes, are presented on HLA class I molecules, and induce peptide-specific T cell response. • (a) Gene set enrichment analysis (GSEA) based depiction of the proteomics data showing the induction of the IFN response and HLA genes following IFN treatment of MD55A3 cells. (b) A volcano plot showing differentially identified proteins as detected by 2D LC-MS/MS on lysates of MD55A3 cells expressing the V5-ATF4(1-63)-tGFP +1 out-of-frame construct. The red arrowhead indicates a peptide identified in the full proteome that corresponds to tGFP that could only have arisen from a frameshifting event. (c) Same analysis as panel b, but for the tryptophan-associated aberrant peptides identified to be reproducibly present in either IFNγ-treated or control conditions. […] (d) Bar graph depicting the median fluorescence intensity (MFI) of H2-Kb-bound SIINFEKL peptides in A375 cells expressing H2-Kb in combination with in-frame (Frame) or +1 out-of-frame (+1) V5-ATF4(1-63)-tGFP-SIINFEKL reporters. […] The panel presents 12 frameshifted peptides detected in the immuno-peptidomics mass spectrometry data of IFNγ and tryptophan deprived (mTRP) samples, which were not detected in the untreated controls. A subset of these were also detected in the fresh tumor metastases (mets) samples of the same patient (MD55). […]

B1: IFNγ: interferon gamma (PeproTech), used at 250 U/mL (protein, UniProt P01579 24-161, looked up)
Interferon gamma: QDPYVKEAENLKKYFNAGHSDVADNGTLFLGILKNWKEESDRKIMQSQIVSFYFKLFKNFKDDQSIQKSVETIKEDMNVKFFNSNKKKRDDFEKLTNYSVTDLNVQRKAIHELIQVMAELSPAAKTGKRKRSQMLFRG
presentation of +1 out-of-frame SIINFEKL peptide (+1 out-of-frame reporter, IDO1-dependent): strongly stimulated
presentation of in-frame SIINFEKL peptide (in-frame reporter, IDO1-independent): mildly induced
